Measurements: patent US20170258870

Test system: Helix 5 TAT peptide

Substance: recombinant GC mutant N370S
- GC enzyme activity (4-MU substrate): the helix 5 TAT-peptide led to a four-fold increase in the activity of the N370S mutant
